{
  "source": "patent US20080160617A1",
  "about": "“AGENT FOR INDUCING EMBRYONIC STEM CELL TO ECTODERMAL CELL, METHOD FOR OBTAINING THE SAME, AND USE OF THE SAME” (KYOWA HAKKO KOGYO CO., LTD., priority 2001, published 2008)",
  "key": {"embryonic stem cell": {"tested_on": "embryonic stem cell", "settings": "cited from earlier work"}, "ES cell EB5 [1]": {"tested_on": "ES cell EB5", "test": "Nerve differentiation of ES cell EB5 by solution recovered from PA6 cell with polyanion-containing Hanks' balanced salt solution (SDIA activity)", "type": "cell-based, mouse", "settings": "SFRP 1 removed with anti-SFRP 1 polyclonal antibody on protein G Sepharose, 4° C., 15 hours; compared with untreated solution", "protocol": "ES cell EB5 (H. Niwa et al., Nature Genet., 24, 372 (2000); obtained from Dr. Hitoshi Niwa at the Molecular Control Medical Science Course, Medical School, Osaka University) was used as the embryonic stem cell, and an MC3T3-G2/PA6 cell (H. Kodama et al., J. Cell Physiol., 112) 89 (1982), hereinafter referred to as “PA6 cell”) as the stromal cell, and the ES cell EB5 was cultured in accordance with the method described in Reference Example 1 and used in the test.\nCells of PA6 cultured to almost confluent state on a dish of 10 cm in diameter were washed twice with 10 ml of PBS(−) (manufactured by Invitrogen) and once with 10 ml of Hanks' balanced salt solution (manufactured by Invitrogen), 3 ml of Hanks' balanced salt solution containing from 0.001% (w/v) to 0.1% (w/v) of heparin (manufactured by Nacalai Tesque) was added thereto, the mixture was allowed to stand at 37° C. for 30 minutes, and the solution was recovered. The solution obtained was added to the PA6 on the 10 cm, dish washed in the same manner described above, the mixture was allowed to stand at 37° C. for 30 minutes in the same manner, and then the solution was recovered. This process was carried out on PA6 on the other 10 cm dish, and effect of the recovered solution ES cell was examined. […]"}, "ES cell EB5 [2]": {"tested_on": "ES cell EB5", "test": "Coculture of ES cell EB5 with PA6 cell in BMP4-added serum-free medium, immunological staining", "type": "cell-based, mouse", "protocol": "A medium was prepared by adding 0.5 nmol/l BMP4 (manufactured by R & D) to the serum-free medium described in Reference Example 1. The ES cell EB5 was cocultured with PA6 cell according to the method described in Reference Example 1, using the thus produced BMP4-added serum-free medium instead of the serum-free medium used in Reference Example 1. Eight days after culturing, immunological cell staining was carried out by using the anti-NCAM antibody, the anti-nestin antibody or an antibody against a non-neural ectoderm cell marker E cadherin (manufactured by Takara Shuzo). As a control, coculturing was carried out in the serum-free medium without BMP4.\nAlso, 8 days after culturing in the BMP4-added serum-free medium, the medium was changed to Glasgow MEM medium containing 10% fetal bovine serum (manufactured by GIBCO BRL), followed by culturing for 3 days. The thus cultured cells were fixed for 30 minutes by adding 4% paraformaldehyde and immunologically stained with an antibody against a skin epidermis cell marker keratin 14 (manufactured by Biomedia), and the results were compared with those in which culturing was continued for additional 3 days in the bovine serum-free medium, with the results shown in FIGS. 9G, H and I."}, "ES cell EB5 [3]": {"tested_on": "ES cell EB5", "test": "Mesodermal marker staining of colonies from ES cell/PA6 coculture in BMP4-added serum-free medium", "type": "cell-based, mouse", "settings": "0.5 nmol/l BMP4-added serum-free medium, coculture with PA6 cell, 8 days", "text": "A medium was produced by adding 0.5 nmol/l of BMP4 (manufactured by R & D) to the serum-free medium described in Reference Example 1. Using the thus produced BMP4-added serum-free medium instead of the serum-free medium used in Reference Example 1, the ES cell EB5 and PA6 cell were cocultured according to the method described in Reference Example 1. That is, the PA6 cell proliferated to almost confluent on a 3 cm tissue culture dish was used as a feeder cell, the ES cell was inoculated onto the feeder cell at a density of 200 cells/dish, medium exchange was carried out with a fresh medium on the 4th, 6th and 7th days, and the cells were cultured at 37° C. for 8 days in a stream of 5% carbon dioxide in a CO2 incubator.\nEight days after coculturing, the cells were fixed according to the method described in Reference Example 1, and colonies formed as a result of coculturing of the ES cell and PA6 cell were immunologically stained with the anti-NCAM antibody, the anti-E cadherin antibody, an MF20 antibody which recognizes mesodermal cells (manufactured by Developmental Studies Hybridoma Bank) and an antibody against PDGF receptor α or Flk1 whose expression are observed in mesodermal cells (S. I. Nishikawa et al., Development, 125, 1747 (1998))."}, "ES cell EB5 [4]": {"tested_on": "ES cell EB5", "test": "Effects of shh and BMP4 on dorso-ventral neural markers in ES cell EB5/PA6 coculture", "type": "cell-based, mouse", "settings": "shh 300 nmol/l or BMP4 0.5 nmol/l added at medium exchange on 4th, 6th, 8th days; 10 days coculture with PA6", "protocol": "According to the method described in Reference Example 1, the ES cell EB5 was cultured for 10 days in the serum-free medium without BMP4 by using the PA6 cell as a feeder cell. That is, the PA6 cell proliferated to almost confluent on a 3 cm tissue culture dish was used as a feeder cell, the ES cell was inoculated onto the feeder cell at a density of 200 cells/dish, the medium was exchanged with a fresh serum-free medium on the 4th, 6th and 8th days, and the cells were cultured at 37° C. for 10 days in a 5% CO2 incubator.\nEffects of shh were evaluated according to the similar method described above, by using a serum-free medium to which 300 nmol/l of shh (manufactured by R & D) had been added at the time of the medium exchange on the 4th, 6th and 8th days.\nEffects of BMP4 were evaluated according to the similar method described above, by using a serum-free medium to which 0.5 nmol/l of BMP4 (manufactured by R & D) had been added at the time of the medium exchange on the 4th, 6th and 8th days.\nTen days after coculturing, the cells cultured by respective culturing methods were fixed according to the method described in Reference Example 1, and the colonies formed as a result of coculturing of the ES cell with PA6 cell were immunologically stained with the anti-NCAM antibody, an antibody against HNF-3β which is a marker of the basal plate existing on the most ventral side of the central nervous system primordium (neural tube) (purchased from Developmental Studies Hybridoma Bank), an antibody against Nkx2.2 as a marker existing secondary to the HNF-3β from the ventral side (purchased from Developmental Studies Hybridoma Bank), an antibody against Pax-7 as a marker of the neural tube dorsal side (purchased from Developmental Studies Hybridoma Bank), an antibody against AP-2 as a marker of the neural crest cell (purchased from Developmental Studies Hybridoma Bank), an antibody against islet 1 as a marker of motor neuron (purchased from Developmental Studies Hybridoma Bank) and an antibody against VAchT which is a marker of cholinergic neuron (manufactured by Chemicon)."}, "[5]": {"settings": "0.5 nmol/l BMP4-added serum-free medium, coculture with PA6 cell, 8 days"}},
  "data": [
    {"molecule": "IL-11: interleukin 11 (protein, UniProt P20809 22-199, looked up) Interleukin-11: PGPPPGPPRVSPDPRAELDSTVLLTRSLLADTRQLAAQLRDKFPADGDHNLDSLPTLAMSAGALGALQLPGVLTRLRADLLSYLRHVQWLRRAGGSSLKTLEPELGTLQARLDRLLRRLQLLMSRLALPQPPPDPPAPPLAPPSSAWGGIRAAHAILGGLHLTLDWAVRGLLLLKTRL", "values": [
      {"measurement": "SDIA-like activity to induce differentiation of embryonic stem cell into ectoderm system cells", "setting": "embryonic stem cell", "result": "no SDIA-like activity"}
    ]},
    {"molecule": "GDNF: glial cell-line derived neurotrophic factor (protein, UniProt P39905 78-211, looked up) Glial cell line-derived …: SPDKQMAVLPRRERNRQAAAANPENSRGKGRRGQRGKNRGCVLTAIHLNVTDLGLGYETKEELIFRYCSGSCDAAETTYDKILKNLSRNRRLVSDKVGQACCRPIAFDDDLSFLDDNLVYHILRKHSAKRCGCI", "values": [
      {"measurement": "SDIA-like activity to induce differentiation of embryonic stem cell into ectoderm system cells", "setting": "embryonic stem cell", "result": "no SDIA-like activity"}
    ]},
    {"molecule": "FGF-8: fibroblast growth factor 8 (protein, UniProt P55075 23-233, looked up) Fibroblast growth factor 8: QEGPGRGPALGRELASLFRAGREPQGVSQQHVREQSLVTDQLSRRLIRTYQLYSRTSGKHVQVLANKRINAMAEDGDPFAKLIVETDTFGSRVRVRGAETGLYICMNKKGKLIAKSNGKGKDCVFTEIVLENNYTALQNAKYEGWYMAFTRKGRPRKGSKTRQHQREVHFMKRLPRGHHTTEQSLRFEFLNYPPFTRSLRGSQRTWAPEPR", "values": [
      {"measurement": "SDIA-like activity to induce differentiation of embryonic stem cell into ectoderm system cells", "setting": "embryonic stem cell", "result": "no SDIA-like activity"}
    ]},
    {"molecule": "SFRP 1: mouse-derived secreted frizzled-related protein 1 (SEQ ID NO:7), about 38 kDa band identified in solution having SDIA activity (protein, listed as Mus musculus) MGVGRSARGRGGAASGVLLALAAALLAAGSASEYDYVSFQSDIGSYQSGRFYTKPPQCVDIPVDLRLCHNVGYKKMVLPNLLEHETMAEVKQQASSWVPLLNKNCHMGTQVFLCSLFAPVCLDRPIYPCRWLCEAVRDSCEPVMQFFGFYWPEMLKCDKFPEGDVCIAMTPPNTTEASKPQGTTVCPPCDNELKSEAIIEHLCASEFALRMKIKEVKKENGDKKIVPKKKKPLKLGPIKKKELKALVLFLKNGADCPCHQLDNLSHNFLIMGRKVKSQYLLTAIHKWDKKNKEFKNFMKRMKNHECPTFQSVFK", "values": [
      {"measurement": "SDIA activity of solution after removal of SFRP 1", "setting": "ES cell EB5 [1]", "result": "decrease of SDIA activity was observed"}
    ]},
    {"molecule": "BMP4: bone morphogenetic protein 4, dorsal factor of neural tube (manufactured by R & D) (protein, UniProt P12644 293-408, looked up) Bone morphogenetic protein 4: SPKHHSQRARKKNKNCRRHSLYVDFSDVGWNDWIVAPPGYQAFYCHGDCPFPLADHLNSTNHAIVQTLVNSVNSSIPKACCVPTELSAISMLYLDEYDKVVLKNYQEMVVEGCGCR", "values": [
      {"measurement": "anti-NCAM antibody staining of ES cell-derived colonies", "setting": "ES cell EB5 [2]; [5]", "result": "anti-NCAM antibody-negative"},
      {"measurement": "anti-nestin antibody staining of ES cell-derived colonies", "setting": "ES cell EB5 [2]; [5]", "result": "anti-nestin antibody-negative"},
      {"measurement": "frequency of E cadherin-positive colonies", "setting": "ES cell EB5 [2]; [5]", "result": 98, "unit": "%"},
      {"measurement": "frequency of keratin 14-positive colonies", "setting": "ES cell EB5 [2]; 8 days in BMP4-added serum-free medium, then 3 days in Glasgow MEM medium containing 10% fetal bovine serum", "result": 47, "unit": "%"},
      {"measurement": "frequency of keratin 14-positive colonies", "setting": "ES cell EB5 [2]; BMP4-added serum-free medium throughout (8 days plus additional 3 days serum-free)", "result": 34, "unit": "%"},
      {"measurement": "colonies stained with mesodermal cell markers PDGF receptor α, Flk1 and MF20, of the total colonies", "setting": "ES cell EB5 [3]", "result": "≤ 5", "unit": "%"},
      {"measurement": "ratio of ES cell-derived colonies stained with Anti-AP-2 antibody", "setting": "ES cell EB5 [4]", "result": 24, "unit": "%"},
      {"measurement": "ratio of ES cell-derived colonies stained with Anti-HNF-3β antibody", "setting": "ES cell EB5 [4]", "result": 9, "unit": "%"},
      {"measurement": "ratio of ES cell-derived colonies stained with Anti-NCAM antibody", "setting": "ES cell EB5 [4]", "result": 90, "unit": "%"},
      {"measurement": "ratio of ES cell-derived colonies stained with Anti-Nkx2.2 antibody", "setting": "ES cell EB5 [4]", "result": 19, "unit": "%"},
      {"measurement": "ratio of ES cell-derived colonies stained with Anti-Pax-7 antibody", "setting": "ES cell EB5 [4]", "result": 72, "unit": "%"},
      {"measurement": "ratio of ES cell-derived colonies stained with Anti-VAchT antibody", "setting": "ES cell EB5 [4]", "result": 42, "unit": "%"},
      {"measurement": "ratio of ES cell-derived colonies stained with Anti-islet 1 antibody", "setting": "ES cell EB5 [4]", "result": 36, "unit": "%"}
    ]}
  ]
}
